According to paper PMC6704107 (2019):

B1: Adeno-associated virus receptor (AAVR), wild-type, PKD1-5 domains [not stated] / Adeno-associated virus 1 (AAV1) particle, wild-type capsid [adeno-associated virus 1 (AAV1)] (parent complex)
chain 1: MEKRLGVKPNPASWILSGYYWQTSAKWLRSLYLFYTCFCFSVLWLSTDASESRCQQGKTQFGVGLRSGGENHLWLLEGTPSLQSCWAACCQDSACHVFWWLEGMCIQADCSRPQSCRAFRTHSSNSMLVFLKKFQTADDLGFLPEDDVPHLLGLGWNWASWRQSPPRAALRPAVSSSDQQSLIRKLQKRGSPSDVVTPIVTQHSKVNDSNELGGLTTSGSAEVHKAITISSPLTTDLTAELSGGPKNVSVQPEISEGLATTPSTQQVKSSEKTQIAVPQPVAPSYSYATPTPQASFQSTSAPYPVIKELVVSAGESVQITLPKNEVQLNAYVLQEPPKGETYTYDWQLITHPRDYSGEMEGKHSQILKLSKLTPGLYEFKVIVEGQNAHGEGYVNVTVKPEPRKNRPPIAIVSPQFQEISLPTTSTVIDGSQSTDDDKIVQYHWEELKGPLREEKISEDTAILKLSKLVPGNYTFSLTVVDSDGATNSTTANLTVNKAVDYPPVANAGPNQVITLPQNSITLFGNQSTDDHGITSYEWSLSPSSKGKVVEMQGVRTPTLQLSAMQEGDYTYQLTVTDTIGQQATAQVTVIVQPENNKPPQADAGPDKELTLPVDSTTLDGSKSSDDQKIISYLWEKTQGPDGVQLENANSSVATVTGLQVGTYVFTLTVKDERNLQSQSSVNVIVKEEINKPPIAKITGNVVITLPTSTAELDGSKSSDDKGIVSYLWTRDEGSPAAGEVLNHSDHHPILFLSNLVEGTYTFHLKVTDAKGESDTDRTTVEVKPDPRKNNLVEIILDINVSQLTERLKGMFIRQIGVLLGVLDSDIIVQKIQPYTEQSTKMVFFVQNEPPHQIFKGHEVAAMLKSELRKQKADFLIFRALEVNTVTCQLNCSDHGHCDSFTKRCICDPFWMENFIKVQLRDGDSNCEWSVLYVIIATFVIVVALGILSWTVICCCKRQKGKPKRKSKYKILDATDQESLELKPTSRAGIKQKGLLLSSSLMHSESELDSDDAIFTWPDREKGKLLHGQNGSVPNGQTPLKARSPREEIL
chain 2: MAADGYLPDWLEDNLSEGIREWWDLKPGAPKPKANQQKQDDGRGLVLPGYKYLGPFNGLDKGEPVNAADAAALEHDKAYDQQLKAGDNPYLRYNHADAEFQERLQEDTSFGGNLGRAVFQAKKRVLEPLGLVEEGAKTAPGKKRPVEQSPQEPDSSSGIGKTGQQPAKKRLNFGQTGDSESVPDPQPLGEPPATPAAVGPTTMASGGGAPMADNNEGADGVGNASGNWHCDSTWLGDRVITTSTRTWALPTYNNHLYKQISSASTGASNDNHYFGYSTPWGYFDFNRFHCHFSPRDWQRLINNNWGFRPKRLNFKLFNIQVKEVTTNDGVTTIANNLTSTVQVFSDSEYQLPYVLGSAHQGCLPPFPADVFMIPQYGYLTLNNGSQAVGRSSFYCLEYFPSQMLRTGNNFTFSYTFEEVPFHSSYAHSQSLDRLMNPLIDQYLYYLNRTQNQSGSAQNKDLLFSRGSPAGMSVQPKNWLPGPCYRQQRVSKTKTDNNNSNFTWTGASKYNLNGRESIINPGTAMASHKDDEDKFFPMSGVMIFGKESAGASNTALDNVMITDEEEIKATNPVATERFGTVAVNFQSSSTDPATGDVHAMGALPGMVWQDRDVYLQGPIWAKIPHTDGHFHPSPLMGGFGLKNPPPQILIKNTPVPANPPAEFSATKFASFITQYSTGQVSVEIEWELQKENSKRWNPEVQYTSNYAKSANVDFTVDNNGLYTEPRPIGTRYLTRPL

Variants of: B1
Test: SPR (BIAcore); parent: 13.9 nM

In order of falling Kd:
1. chain 1 T426A  46.9 µM
2. chain 1 V427A  35.8 µM
3. chain 1 S425A  3.68 µM
